The values below come from the nanobody polyreactivity screen of Harvey et al. (2022).

A short description of the series: yeast display, Sf9 membrane polyspecificity reagent, FACS + sequencing; frameworks hold sequencing errors. In a few lines:
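Using colony PCR, genes from sorted yeast display clones were amplified, then sequenced on MiSeq at 2 × 250 and filtered by CDR length. The clones had been stained with 10% biotinylated, detergent-solubilized Sf9 membrane reagent for 1 hour at 4 °C and sorted by FACS into low and high (top ~1%) gates on anti-HA and streptavidin fluorescence. Polyreactivity labels come from the gate of origin.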
“QVQLVESGGGLVQAGGSLRFSCAASRLTFYWYAMGWYRQPPGKERELVAGISWSGGSTYADSVKGRFTITRDNAKNTVYLQLNSLKPEDTAVYYCAADTYYYRGQSYYYWGQGTEVTVSS”: the “polyreactivity (PSR sort gate)” value was “high polyreactivity”. In the case of “QVQLVESGGGLVQAGGSLRFSCAPSGRILYKYAMGCYRQAPGKERELVAAISWRGTTTYYADSVKGRFTISRDNAKNTVYLQMNSLKPEDTAVYYCNARVRVRLGRNWSSYYYWGQGTQVTVSS”, the “polyreactivity (PSR sort gate)” value is listed as “high polyreactivity”. Consider “QVQLVESGGGLVQAGGSLRFSCDASGRTFRYYAMGWYRQAPGKERELVAAIRSGGTTYYADSVKGRFTISRDNAKNTVYFQMNSLKPEDTAVYYCAAKVPWKYSRVYRVGFDYWGQGTQVTVSS”, for which the “polyreactivity (PSR sort gate)” value is “high polyreactivity”. On to “QVQLVESGGGLVQAGGSLRFSCSASGRTFLIYAMGWYRQAPGKARELVAAINFSGGNTYYADSVKGRFTISRDNAKNTVYLQMNSLKPEDTAVYYCAAGVYSFRYDYWGQGTQVTVSS”, for which the “polyreactivity (PSR sort gate)” value was “low polyreactivity”. As for “QVQLVESGGGLVQAGGSLRIICAASGRTLSGYAMGWYRQAPGKERELVAAISSDGRTYYADSVKGRFTISRDNAKNTVYLQMNSLKPEDTAVYYCAARANPYVLKYYYWGQGTQVTVSS”, the “polyreactivity (PSR sort gate)” value is “high polyreactivity”. The same measure for “QVQLVESGGGLVQAGGSLRISCAASGFIFGKNDMGWYRQATWKERELVAAITIGGSTNYADSVKGRFTFSRDNAKNTVYLQMNSLKPEDTAVYYCNADSYHYGTSLYNYWGQGTQLTVSS”: “low polyreactivity”. Consider “QVQLVESGGGLVQAGGSLRISCAASGFIFRLYAMGWYRQAPGKERELVAAIRWSGGSTTYADSVKGRFTISRDNAKNTVYLQMNSLNPEDTAVYYCAATAGRRSVTYGYWGQGTQVTVSS”, for which the “polyreactivity (PSR sort gate)” value is reported as “high polyreactivity”. On to “QVQLVESGGGLVQAGGSLRISCAASGFIFRSYAMGWDRKAPGKERELVAAITRSGGSTYYADSVKGRFTISRDNAKTTVYLQMNSLKPEDTAVYYCATRRYWYYILDYGGQGTQVTVSS”, for which the “polyreactivity (PSR sort gate)” value is “high polyreactivity”. For “QVQLVESGGGLVQAGGSLRISCAASGFIFTYYAMGWYRQAPGKERELVAAITKSGTSTYYADSVKGRFTISRDNAKNTVYLQMNSLKPEDTAVYYCNAVLWWDWEYDFYYWGQGTQVTVSS”, the “polyreactivity (PSR sort gate)” value is recorded as “high polyreactivity”.

“QVQLVESGGGLVQAGGSLRISCAASGFIFWYYTMGRYIQAPGKERELVAAINSGGSTNYADSVKGRFTISRDNAKNTVYLQMNSLKPEDTAVYYCAALVCYSGELFYYWGQGTQVTVSS”: the “polyreactivity (PSR sort gate)” value is “low polyreactivity”. Take “QVQLVESGGGLVQAGGSLRISCAASGFIFYGNAMGWYIQAPGKERELVASITGGGRTYYADSVKGRFTISRDNAKNTVYLQMNSLKPEDTAVYYCATLLAYRLGSGYDSWGQGTQVTVSS”: the “polyreactivity (PSR sort gate)” value is “high polyreactivity”.

As for “QVQLVESGGGLVQAGGSLRISCAASGFIFYWNAMGWYRQAPGKERELVAGITSGGDTNYADSVKGRFTISRDNAKNTVYLQINSLKPEDTAVYYCAAEGFRGYGYWGQGTQVTVSS”, the “polyreactivity (PSR sort gate)” value is reported as “low polyreactivity”. The same measure for “QVQLVESGGGLVQAGGSLRISCAASGFTFPSYAMGWYRQAAGKERELVAAINRRGGSTNYADSVKGRFTISRDNAKNTDYLQMNSLKPEDTAVYYCAKQPRLGKYEYYYWGQGTQVTVSS”: “high polyreactivity”; for “QVQLVESGGGLVQAGGSLRISCAASGFTFSAYAMGWYRQAPGKERELVAAISGSGGRTYYADSVKGRFTISRDNAKNTVYLQMNSLKPEDTAVYYCATSTAGGRETVSQYRYYWGHGTQVTVSS”: “high polyreactivity”; for “QVQLVESGGGLVQAGGSLRISCAASGFTFVYNTMGWYRQAPGKERELVAAITSRGGSTYYADSVKGRFTISRDNAKNTVYLQMYSLKPEDTAVYYCAAKISVRTSGTRYYYWGQGTQVTVSS”: “high polyreactivity”. As for “QVQLVESGGGLVQAGGSLRISCAASGFTFWYYVMGWYRQAPGKERELVAAISSGGSTYYADSVKGRFTISRDNAKNTVYLQINSLKPEDTAVYYCAASYRSATRQFDYWGQGTQVTVSS”, the “polyreactivity (PSR sort gate)” value is listed as “low polyreactivity”. The same measure for “QVQLVESGGGLVQAGGSLRISCAASGFTFYRYAMGWYRQAPGKERELVAAISSDGTTYNADSVKGRFTISRDNAKNTVYLQINSLKPEDNAVYYCAKRGYYRSRRYDYWGQGTQVNVSS”: “high polyreactivity”. Regarding “QVQLVESGGGLVQAGGSLRISCAASGFTFYRYAMGWYRQAPGKESELVAAITRSGRTYYADSVKGRFTISRDNAKNTFYLQMNSLKPEDTAVYYCYADWGLGTQVTVSS”, the “polyreactivity (PSR sort gate)” value is “high polyreactivity”. In the case of “QVQLVESGGGLVQAGGSLRISCAASGGIFRYVMGWYRQAPGKERELVATISGRGGSTYYADSVKGRFTISRDNAKNTVYLQMNSLKPEDTAVYYCATHSWRRAGYEYWGQGTQVTVSS”, the “polyreactivity (PSR sort gate)” value is on record as “high polyreactivity”.

Turning to “QVQLVESGGGLVQAGGSLRISCAASGGIIQYYDMGWYRQAPGKEREFVATISQRGGITYYADSVKGRFTISRDNAKNTVYLQMNSLKPEDTAVYYCAARSYYAVYYWGQGTQVTVSS”, the “polyreactivity (PSR sort gate)” value was “high polyreactivity”. On to “QVQLVESGGGLVQAGGSLRISCAASGIIFRLNAMGWYRQAPGKERELVAAIRRRGGSTYNADSVKGRFTISRHNAKNTVYLQMNSLKPEDTAVYYGAKDPHGSDFGYWGQGTQVTVSS”, for which the “polyreactivity (PSR sort gate)” value is recorded as “low polyreactivity”. For “QVQLVESGGGLVQAGGSLRISCAASGIIFRYYAMGWYRQAPGKERELVARISSGGSTKYADSVKGRYTISRDNAKNTVYLQMNSLKPEDTAVYYCAAEYYSLRYAIFYYWGQGTQVTVSS”, the “polyreactivity (PSR sort gate)” value is “high polyreactivity”.

As for “QVQLVESGGGLVQAGGSLRISCAASGIIFYLYTMGWYRQAPGKERELVAAITRGGSTYYADSVKGRFTISRDNAKNTVYLQMNSLKPEDTAVYYCAAKHGPGYRRWYDYWGQGTQVTVSS”, the “polyreactivity (PSR sort gate)” value is given as “high polyreactivity”.

Regarding “QVQLVESGGGLVQAGGSLRISCAASGITFPWYAMGWYRQAPGKERELVAAINRAGNTNYADSVKGRFTISRDNAKNTVYLQMNSLKPEDTSVYYCAARWRYKYTLGYWGQGTQVTVSS”, the “polyreactivity (PSR sort gate)” value is “high polyreactivity”.

With “QVQLVESGGGLVQAGGSLRISCAASGITFRRYGMGWYRQAPGKERELVATITSSVGSRTYYADSVKGRFTISRDNAKNTVYLQMNSLKPEDTAVYYCAADHRVYDSEYWGQGTQVTVSS”, the “polyreactivity (PSR sort gate)” value was “low polyreactivity”. In the case of “QVQLVESGGGLVQAGGSLRISCAASGITFSENDMGWYRQAPGKERELDAAISSGDGTNYADSVKGRFTISRDNEKNTVYLQMNSLKPEDTAVYYCNADGFVDWAWSEQYIPNIHLDYWGQGTQVTVSS”, the “polyreactivity (PSR sort gate)” value is on record as “low polyreactivity”. Take “QVQLVESGGGLVQAGGSLRISCAASGITFTSYAMGWYRQAPGKERELVAAISSSGVRTYYADSVKGRFTISRDNAKNTVYLQLNSLKPEDTAVYYCATRRRVLDGYDYGGQGTQVTVSS”: the “polyreactivity (PSR sort gate)” value was “high polyreactivity”.

As for “QVQLVESGGGLVQAGGSLRISCAASGLIFADYTMGWYRQAPGKERDLVAVITDGDSTYYADSVKGRFTISRDNAKNTVYLQMNSLKPEDTAVYYCAAELDGSNYTLDYWGQGTQVTVST”, the “polyreactivity (PSR sort gate)” value was “low polyreactivity”. On to “QVQLVESGGGLVQAGGSLRISCAASGLTFYRYAMGWYRQAPGKERELVAAIRVSGNTYYADSVKGRFTISRDNAKNTVYLEMNSLKPEDTAVYYFAAKPYYFYGMDYWGQGTQVTVSS”, for which the “polyreactivity (PSR sort gate)” value is recorded as “high polyreactivity”. Then “QVQLVESGGGLVQAGGSLRISCAASGLTFYVYAMGWYRPAPGKERELVAAISGRGGRTYYADSVKGRFTISRDNAKNTVYLQMNSMKPEDTAVYYCAARYPRYRYVEYGYNYWGQGTQVTLSS”, with “high polyreactivity”.
